Test results published in patent US20230071609A1 (Genentech, published 2023).

T1: gD-MAD-SRA-ID-GPI (construct d) (human, UniProt O14791 238-398, C-terminal GPI anchor)
T1 sequence: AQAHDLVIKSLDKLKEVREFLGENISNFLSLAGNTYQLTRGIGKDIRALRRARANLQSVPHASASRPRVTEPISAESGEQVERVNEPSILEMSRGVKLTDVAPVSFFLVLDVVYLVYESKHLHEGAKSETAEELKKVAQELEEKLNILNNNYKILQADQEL

T2: endogenous APOL2 in human podocytes (human, UniProt Q9BQE5 1-337)
T2 construct: In podocyte lysates (western blot) or fixed, permeabilized podocytes; also called 36 kDa APOL2 band
T2 sequence (looked up): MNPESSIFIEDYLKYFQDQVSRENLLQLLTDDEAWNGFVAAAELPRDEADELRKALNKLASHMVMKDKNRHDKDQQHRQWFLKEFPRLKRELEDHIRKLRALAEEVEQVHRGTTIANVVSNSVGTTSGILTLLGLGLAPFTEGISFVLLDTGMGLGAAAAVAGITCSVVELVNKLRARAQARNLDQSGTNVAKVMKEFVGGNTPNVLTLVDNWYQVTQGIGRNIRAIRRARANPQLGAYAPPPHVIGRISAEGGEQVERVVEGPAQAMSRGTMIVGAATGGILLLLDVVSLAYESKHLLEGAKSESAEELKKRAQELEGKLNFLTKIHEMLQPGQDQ

T3: endogenous human APOL1 (wild-type immortalized podocytes; also JHH-1 cells, kidney and liver tissue) (human, UniProt O14791 28-398)
T3 construct: whole, on cells; Cell or tissue and permeabilization are told under assay; also called podocyte APOL1; endogenous APOL1
T3 sequence (looked up): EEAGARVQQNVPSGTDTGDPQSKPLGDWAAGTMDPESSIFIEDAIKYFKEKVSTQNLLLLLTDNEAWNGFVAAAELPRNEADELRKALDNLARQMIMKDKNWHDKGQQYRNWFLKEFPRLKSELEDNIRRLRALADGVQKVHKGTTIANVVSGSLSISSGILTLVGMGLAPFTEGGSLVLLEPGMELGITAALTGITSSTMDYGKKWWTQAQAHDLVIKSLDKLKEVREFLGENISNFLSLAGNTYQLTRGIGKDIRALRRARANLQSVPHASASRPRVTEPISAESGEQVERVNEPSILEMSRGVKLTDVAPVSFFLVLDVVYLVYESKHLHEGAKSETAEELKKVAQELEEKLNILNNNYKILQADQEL


How the values were obtained:
[1] = biological target: T1, gD-MAD-SRA-ID-GPI (construct d); assay: flow cytometry, live CHO cells; 3.7D6 is the representative PFD antibody
Experimental: Stably transfected live (not fixed or permeabilized) CHO cells expressing the gD-iAPOL1-GPI constructs indicated in FIGS. 1A-1E after induction with 5 μg/ml dox for 48 h, showing differential antibody binding at 5 μg/ml. […] White histograms are Alexa488 anti-mouse or anti-rabbit secondaries only; grey histograms are the anti-APOL1 signals. A representative histogram for each category is shown: 3.7D6 for PFD; 3.3A8 for C-terminus of MAD, 3.5H9 for N-terminus of MAD; 3.1C1 for SRA-ID; 3.2D4 for multi-domain; 3.3F7 for conformational and 3.5B10 for FACS-negative (FACS-ve). The prefix 3 in the name of the antibodies denotes murine monoclonals from Method #3 (as shown in Example 1 below); other antibodies (not illustrated here) starting with the number 4 are murine monoclonals derived from mice additionally boosted with SRA-ID protein; and prefix 5-named antibodies are rabbit monoclonals from Method #5 (Table 2A; and Example 2). […] The Sigma polyclonal (HPA018885, raised to aa 263-387) and the Epitomics rabbit monoclonal (EPR2907(2), raised to an undisclosed peptide) are SRA-ID binders. […]
Cells were harvested with 5 mM EDTA in PBS, washed once with growth media and twice with PBS. […] Signals were read in a FACSCalibur3 (Becton Dickinson), with the exception of FIG. 8A and FIG. 14, which used a FACSCelesta, and data was analyzed using FlowJo v8.4.5.

[2] = biological target: T2, endogenous APOL2 in human podocytes; assay: western blot of WT and APOL1 KO podocyte lysates
Experimental: The results corroborate the IF cross-reactivities, except for APOL4 cross-reactivity, which appears to be conformationally sensitive. The 3.6D12 antibody continues to recognize APOL2 in the APOL1 KO podocytes (generated as described in Example 1). Note the 4.17A5 western is shown at a longer exposure than the others.
Following three TBST washes, anti-mouse (GE Healthcare NA931V, 1:3000) or anti-rabbit HRP (Jackson 711-036-152, 1:8000) was added as secondary antibody. After 1 h, membranes were washed and protein detected using ECL prime (Amersham RPN2232) exposed to MR film (Kodak). Anti-actin HRP-conjugated antibody (clone 13E5, Cell Signaling Technologies 5125S at 1:5000) or calnexin (Abcam Ab22595 at 1:1000) was used as a loading control. For peptide mapping, 2 μl of 1 mM peptides in DMSO were boiled in 5× sample buffer and loaded on 10% Tris-Glycine gel and run using MES buffer. Cell pellets of Sf9 lysates were lysed in native RIPA (NP-40) lysis buffer and run on 10% Tris-Glycine gels.

[3] = biological target: T3, endogenous human APOL1 (wild-type …); assay: podocyte flow cytometry
Experimental: In FIG. 25A, live WT (left) or APOL1 KO (right) podocytes were incubated on ice for 1 h (without fixation or permeabilization) with 2.5 μg/ml 3.6D12 (an APOL2 cross-reactive mAb). “2° Ab” is Alexa488 anti-mouse secondary antibody alone; “—IFNγ” is untreated; “+IFNγ” is IFNγ-treated cells. There is a shift on WT, but not KO cells (which express APOL2 but not APOL1). […] Thus, the shift seen with 3.6D12 in WT cells must represent APOL1, and increases with IFNγ, as expected.
Cells were harvested with 5 mM EDTA in PBS, washed once with growth media and twice with PBS. Approximately 0.5×10⁶/m1 of cells resuspended in PBS were incubated with anti-APOL1 antibodies for 1 h on ice. Following two PBS washes, 2 μg/ml of Alexa488 anti-mouse or anti-rabbit (Invitrogen A11029 and A21206, respectively) was used for 1 h on ice for detection. Cells were washed twice in PBS and resuspended in PBS with 1 μg/ml propidium iodide. Signals were read in a FACSCalibur3 (Becton Dickinson), with the exception of FIG. 8A and FIG. 14, which used a FACSCelesta, and data was analyzed using FlowJo v8.4.5. Mean fluorescence intensities were plotted in PRISM v7 after subtraction of secondary antibody alone background. For low pH experiments, cells were incubated with the antibodies in the presence of PBS pH 7.0 or PBS pH 5.5 for an hour on ice and detected with secondary antibodies at neutral pH.

Binder	binding result [1]	binding result [2]	binding result [3]
antibody 3.7D6 (antibody, V domains shown, Mouse mAb, cloned as murine IgG2a LALAPG; those versions are not written separately; also called PFD antibody 3.7D6) VH: QIQLVQSGPDLKKPGETVKISCRTSGYAFTNYGVNWVKQAPGKGLKWMGWINTNTGQTTYAEEFRGRFAISLETSASTAFLTISNLKNEDSATYFCARLIYDGDYISSDFWGQGTTLTVSS VL: DIQMTQSPDSLSASVGETVTITCGASENIYGALNWYQRKQGKSPQLLIYGATNLADGMSSRFSGSRSGRQYSLKISSLHPDDVATYYCQNALSMPYTFGGGTKLEIKR	no binding (tested: 5 µg/ml)	–	–
antibody 3.6D12 (antibody, V domains shown, Mouse mAb (Method #3), cloned as murine IgG2a LALAPG; Early screens used hybridoma-purified antibody; also called mAb 3.6D12) VH: EVMLVESGGGLVRPGGSLKLSCTASGFTFSRCAMSWVRQTPEKRLEWVSAISRDSTYTYYSDSVKGRFTVSRDNAKNTLYLQMSSLRSEDTAMYYCARQIDDYYVDALDYWGQGTSVTVSS VL: DVQITQSPSYLAASPGETITINCRASKIISKYLAWYQEKPGKTIKLLIYSGFTLQSGIPSRFSGSGSGTDFTLTISSLEPEDFAMYYCQQHNEYPLTFGAGTKLEIKR	–	binds	binds
